# Reference: patent US20140274782A1, “AFFINITY REAGENTS AND METHODS FOR DETECTION, PURIFICATION, AND PROTEOMIC ANALYSIS OF METHYLATED PROTEINS” (The Board of Trustees of the Leland Stanford Junior …, priority 2013, published 2014)
# T1: G9a and GLP (Homo sapiens, UniProt Q96KQ7+Q9H9B1)
# T1 sequence (Q96KQ7 2-1210 limits assumed): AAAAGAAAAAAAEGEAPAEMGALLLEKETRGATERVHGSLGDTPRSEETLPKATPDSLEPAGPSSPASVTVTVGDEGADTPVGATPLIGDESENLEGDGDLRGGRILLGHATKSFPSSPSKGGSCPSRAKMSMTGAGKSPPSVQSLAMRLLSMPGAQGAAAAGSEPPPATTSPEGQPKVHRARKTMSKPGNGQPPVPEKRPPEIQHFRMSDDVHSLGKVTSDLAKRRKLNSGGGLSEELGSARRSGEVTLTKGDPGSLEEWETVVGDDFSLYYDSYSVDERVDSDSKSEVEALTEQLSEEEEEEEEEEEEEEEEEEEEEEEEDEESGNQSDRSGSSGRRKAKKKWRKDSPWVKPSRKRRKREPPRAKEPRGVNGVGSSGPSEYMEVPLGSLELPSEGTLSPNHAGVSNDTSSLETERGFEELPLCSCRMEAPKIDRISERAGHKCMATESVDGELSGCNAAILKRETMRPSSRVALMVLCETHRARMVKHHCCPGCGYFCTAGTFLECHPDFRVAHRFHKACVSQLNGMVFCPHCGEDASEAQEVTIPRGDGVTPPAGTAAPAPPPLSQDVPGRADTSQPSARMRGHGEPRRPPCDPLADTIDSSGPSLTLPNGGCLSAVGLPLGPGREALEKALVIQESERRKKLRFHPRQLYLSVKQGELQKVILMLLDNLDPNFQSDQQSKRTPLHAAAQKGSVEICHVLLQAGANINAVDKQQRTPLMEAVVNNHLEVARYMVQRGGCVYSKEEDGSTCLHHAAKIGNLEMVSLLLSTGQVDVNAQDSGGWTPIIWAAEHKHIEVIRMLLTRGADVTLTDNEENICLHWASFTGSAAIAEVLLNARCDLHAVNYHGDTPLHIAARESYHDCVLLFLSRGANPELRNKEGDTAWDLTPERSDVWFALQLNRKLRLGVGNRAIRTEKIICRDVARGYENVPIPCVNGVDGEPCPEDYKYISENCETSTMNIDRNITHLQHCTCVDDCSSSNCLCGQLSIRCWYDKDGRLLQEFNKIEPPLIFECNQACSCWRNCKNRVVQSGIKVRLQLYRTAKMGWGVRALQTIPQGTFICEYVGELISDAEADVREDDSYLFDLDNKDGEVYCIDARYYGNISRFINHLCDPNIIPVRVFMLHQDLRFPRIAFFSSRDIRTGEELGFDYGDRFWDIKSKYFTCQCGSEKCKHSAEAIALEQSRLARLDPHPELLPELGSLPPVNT
# T1 sequence (Q9H9B1 2-1298 limits assumed): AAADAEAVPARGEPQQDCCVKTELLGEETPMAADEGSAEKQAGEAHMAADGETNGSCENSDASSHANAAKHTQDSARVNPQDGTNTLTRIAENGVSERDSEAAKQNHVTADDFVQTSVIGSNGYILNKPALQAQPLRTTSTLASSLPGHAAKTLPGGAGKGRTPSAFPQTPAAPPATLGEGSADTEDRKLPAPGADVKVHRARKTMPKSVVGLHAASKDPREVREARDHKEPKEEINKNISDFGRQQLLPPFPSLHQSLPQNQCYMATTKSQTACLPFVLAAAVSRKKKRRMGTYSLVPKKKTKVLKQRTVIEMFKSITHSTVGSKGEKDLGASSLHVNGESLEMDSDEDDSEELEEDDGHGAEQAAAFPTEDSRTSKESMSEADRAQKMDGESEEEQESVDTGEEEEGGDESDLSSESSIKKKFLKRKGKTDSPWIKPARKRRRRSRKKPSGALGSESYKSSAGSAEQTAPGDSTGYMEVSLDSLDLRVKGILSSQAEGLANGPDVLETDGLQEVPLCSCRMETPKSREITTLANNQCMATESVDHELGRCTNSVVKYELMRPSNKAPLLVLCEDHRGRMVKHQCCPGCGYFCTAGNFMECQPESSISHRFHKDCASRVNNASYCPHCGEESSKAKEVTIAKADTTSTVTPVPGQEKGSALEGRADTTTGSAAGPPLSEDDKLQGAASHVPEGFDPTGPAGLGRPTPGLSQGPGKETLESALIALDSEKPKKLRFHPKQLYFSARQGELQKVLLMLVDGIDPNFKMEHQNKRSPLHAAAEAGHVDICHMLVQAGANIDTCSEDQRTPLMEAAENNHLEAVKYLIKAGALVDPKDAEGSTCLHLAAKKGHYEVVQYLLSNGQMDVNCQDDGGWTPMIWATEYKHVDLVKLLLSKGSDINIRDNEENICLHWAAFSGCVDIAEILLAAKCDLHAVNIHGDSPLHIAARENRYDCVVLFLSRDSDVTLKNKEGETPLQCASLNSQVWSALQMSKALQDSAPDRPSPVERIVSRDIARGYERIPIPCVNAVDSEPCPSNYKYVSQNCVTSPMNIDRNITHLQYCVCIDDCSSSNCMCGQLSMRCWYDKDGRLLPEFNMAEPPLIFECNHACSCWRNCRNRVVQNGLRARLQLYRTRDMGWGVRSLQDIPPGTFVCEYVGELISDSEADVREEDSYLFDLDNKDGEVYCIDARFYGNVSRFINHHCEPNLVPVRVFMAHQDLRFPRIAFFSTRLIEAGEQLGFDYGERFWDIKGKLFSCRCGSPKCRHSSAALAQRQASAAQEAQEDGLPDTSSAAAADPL
# B1: PABPC4 (protein, UniProt Q13310 1-644, looked up)
# Polyadenylate-binding protein …: MNAAASSYPMASLYVGDLHSDVTEAMLYEKFSPAGPVLSIRVCRDMITRRSLGYAYVNFQQPADAERALDTMNFDVIKGKPIRIMWSQRDPSLRKSGVGNVFIKNLDKSIDNKALYDTFSAFGNILSCKVVCDENGSKGYAFVHFETQEAADKAIEKMNGMLLNDRKVFVGRFKSRKEREAELGAKAKEFTNVYIKNFGEEVDDESLKELFSQFGKTLSVKVMRDPNGKSKGFGFVSYEKHEDANKAVEEMNGKEISGKIIFVGRAQKKVERQAELKRKFEQLKQERISRYQGVNLYIKNLDDTIDDEKLRKEFSPFGSITSAKVMLEDGRSKGFGFVCFSSPEEATKAVTEMNGRIVGSKPLYVALAQRKEERKAHLTNQYMQRVAGMRALPANAILNQFQPAAGGYFVPAVPQAQGRPPYYTPNQLAQMRPNPRWQQGGRPQGFQGMPSAIRQSGPRPTLRHLAPTGSECPDRLAMDFGGAGAAQQGLTDSCQSGGVPTAVQNLAPRAAVAAAAPRAVAPYKYASSVRSPHPAIQPLQAPQPAVHVQGQEPLTASMLAAAPPQEQKQMLGERLFPLIQTMHSNLAGKITGMLLEIDNSELLHMLESPESLRSKVDEAVAVLQAHHAKKEAAQKVGAVAAATS
# B2: C14orf166 (protein, UniProt Q9Y224 1-244, looked up)
# RNA transcription, …: MFRRKLTALDYHNPAGFNCKDETEFRNFIVWLEDQKIRHYKIEDRGNLRNIHSSDWPKFFEKYLRDVNCPFKIQDRQEAIDWLLGLAVRLEYGDNAEKYKDLVPDNSKTADNATKNAEPLINLDVNNPDFKAGVMALANLLQIQRHDDYLVMLKAIRILVQERLTQDAVAKANQTKEGLPVALDKHILGFDTGDAVLNEAAQILRLLHIEELRELQTKINEAIVAVQAIIADPKTDHRLGKVGR
# B3: MTHFD1 (protein, UniProt P11586 1-935, looked up)
# C-1-tetrahydrofolate …: MAPAEILNGKEISAQIRARLKNQVTQLKEQVPGFTPRLAILQVGNRDDSNLYINVKLKAAEEIGIKATHIKLPRTTTESEVMKYITSLNEDSTVHGFLVQLPLDSENSINTEEVINAIAPEKDVDGLTSINAGKLARGDLNDCFIPCTPKGCLELIKETGVPIAGRHAVVVGRSKIVGAPMHDLLLWNNATVTTCHSKTAHLDEEVNKGDILVVATGQPEMVKGEWIKPGAIVIDCGINYVPDDKKPNGRKVVGDVAYDEAKERASFITPVPGGVGPMTVAMLMQSTVESAKRFLEKFKPGKWMIQYNNLNLKTPVPSDIDISRSCKPKPIGKLAREIGLLSEEVELYGETKAKVLLSALERLKHRPDGKYVVVTGITPTPLGEGKSTTTIGLVQALGAHLYQNVFACVRQPSQGPTFGIKGGAAGGGYSQVIPMEEFNLHLTGDIHAITAANNLVAAAIDARIFHELTQTDKALFNRLVPSVNGVRRFSDIQIRRLKRLGIEKTDPTTLTDEEINRFARLDIDPETITWQRVLDTNDRFLRKITIGQAPTEKGHTRTAQFDISVASEIMAVLALTTSLEDMRERLGKMVVASSKKGEPVSAEDLGVSGALTVLMKDAIKPNLMQTLEGTPVFVHAGPFANIAHGNSSIIADRIALKLVGPEGFVVTEAGFGADIGMEKFFNIKCRYSGLCPHVVVLVATVRALKMHGGGPTVTAGLPLPKAYIQENLELVEKGFSNLKKQIENARMFGIPVVVAVNAFKTDTESELDLISRLSREHGAFDAVKCTHWAEGGKGALALAQAVQRAAQAPSSFQLLYDLKLPVEDKIRIIAQKIYGADDIELLPEAQHKAEVYTKQGFGNLPICMAKTHLSLSHNPEQKGVPTGFILPIRDIRASVGAGFLYPLVGTMSTMPGLPTRPCFYDIDLDPETEQVNGLF
# B4: DRG1 (protein, UniProt Q9Y295 2-367, looked up)
# Developmentally-regulated …: SSTLAKIAEIEAEMARTQKNKATAHHLGLLKARLAKLRRELITPKGGGGGGPGEGFDVAKTGDARIGFVGFPSVGKSTLLSNLAGVYSEVAAYEFTTLTTVPGVIRYKGAKIQLLDLPGIIEGAKDGKGRGRQVIAVARTCNLILIVLDVLKPLGHKKIIENELEGFGIRLNSKPPNIGFKKKDKGGINLTATCPQSELDAETVKSILAEYKIHNADVTLRSDATADDLIDVVEGNRVYIPCIYVLNKIDQISIEELDIIYKVPHCVPISAHHRWNFDDLLEKIWDYLKLVRIYTKPKGQLPDYTSPVVLPYSRTTVEDFCMKIHKNLIKEFKYALVWGLSVKHNPQKVGKDHTLEDEDVIQIVKK
# Tested on: 3×MBT domain of L3MBTL1
# Experiment: Triple SILAC pull-down, 3xMBT/3xMBTD355N ratio (cytoplasmic, nuclear and chromatin fractions of 293T cells);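 further: proteins quantified with MaxQuant, requiring at least two unique peptides and quantification in both label directions, normalized to the mean of proteins from a digested loading control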
# Type: binding, human
# Details: SILAC ratio, pull-down 3xMBT vs 3xMBTD355N; experiment with UNC0638 in heavy SILAC media
row,Molecule,3xMBT/D355N UNC Heavy [log base 2]
1,B1,2.94
2,B2,3.09
3,B3,1.99
4,B4,3.49

# Same assay, conditions: SILAC ratio, pull-down 3xMBT vs 3xMBTD355N; experiment with UNC0638 in light SILAC media
row,Molecule,3xMBT/D355N UNC Light [log base 2]
1,B1,3.59
2,B2,3.13
3,B3,2.35
4,B4,3.66

# Target: T1, G9a and GLP
# Experiment: Triple SILAC pull-down after UNC0638 treatment of 293T cells, DMSO/UNC0638 ratio of protein captured by 3×MBT;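 further: mass spectrometry (Q-Exactive) SILAC quantitation, DMSO/UNC0638 ratio computed after subtracting 3×MBTD355N mutant pull-down background, only proteins with at least twofold 3×MBT over mutant signal considered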
# Type: cell-based
# Design: cells were treated for 24 hours with UNC0638 at 2.5 μM or DMSO vehicle control; endogenous in cells; host or cells: HEK 293T
# Details: SILAC ratio DMSO/UNC0638 of protein pulled down with 3xMBT; UNC0638 in heavy SILAC media
row,Relative to UNC0638 UNC Heavy [log base 2],Molecule
1,0.16,B1
2,0.09,B2
3,0.05,B3
4,0.36,B4

# Same assay, conditions: SILAC ratio DMSO/UNC0638 of protein pulled down with 3xMBT; UNC0638 in light SILAC media
row,Relative to UNC0638 UNC Light [log base 2],Molecule
1,0.17,B1
2,0.24,B2
3,0.23,B3
4,−0.03,B4

# Same assay, conditions: average of UNC Light and UNC Heavy experiments
row,Relative to UNC0638 Average [log base 2],Molecule
1,0.16,B1
2,0.16,B2
3,0.14,B3
4,0.16,B4
